This note sets out measurements from paper PMC11187106, “Master corepressor inactivation through multivalent SLiM-induced polymerization mediated by the oncogene suppressor RAI2” (Nature Communications, 2024).

What all share (conditions): both partners purified
For assay [1], the target named is CtBP1(WT, FL) (human, UniProt Q13363 1-440). Nature of the assay: ITC; VP-ITC, 25 °C, 50 mM HEPES (pH 7.2), 150 mM NaCl; CtBP in the cell (10 µM for RAI2 M1 or M2, 20 µM for the WT RAI2 constructs), RAI2 in the syringe (100 µM); mean of three independent measurements ± SD.
Assay [2] has as its target T1, CtBP1(WT, FL) (human, UniProt Q13363 1-440). Kind of assay: ITC; VP-ITC, 25 °C, 50 mM HEPES (pH 7.2), 150 mM NaCl; CtBP in the cell (10 µM for M1 or M2, 20 µM for WT RAI2 constructs), RAI2 constructs in the syringe (100 µM); mean of three measurements.
In assay [3] the target is CtBP1(WT, FL) (human, UniProt Q13363 1-440). Kind of assay: ITC; VP-ITC, 25 °C, 50 mM HEPES (pH 7.2), 150 mM NaCl; CtBP in the cell (10 µM for RAI2 M1 or M2, 20 µM for the WT RAI2 constructs), RAI2 in the syringe (100 µM); mean of three independent measurements ± SD. The source holds these as a separate data set. On the technique in general: Isothermal titration calorimetry measures the heat released or taken up as one component is titrated into another.

Assay [4] has as its target CtBP1(K46W) (human, UniProt Q13363 1-440, K46W). The description is as above.
Assay [5] shares this target. Nature of the assay: ITC; VP-ITC, 25 °C, 50 mM HEPES (pH 7.2), 150 mM NaCl; CtBP in the cell (10 µM for M1 or M2, 20 µM for WT RAI2 constructs), RAI2 constructs in the syringe (100 µM); mean of three measurements.
The target of assay [6] is CtBP1(WT, FL) (human, UniProt Q13363 1-440). Nature of the assay: ITC; VP-ITC, 25 °C, 50 mM HEPES (pH 7.2), 150 mM NaCl; CtBP1 in the cell (20 µM for WT RAI2, 10 µM for M1 or M2), RAI2(303-362) variants 100 µM in the syringe; mean of three independent measurements.
In assay [7] the target is T1, CtBP1(WT, FL). Kind of assay: SEC; analytical Superose 6 3.2/300 GL, 50 mM HEPES (pH 7.2), 150 mM NaCl; CtBP kept at 100 µM, RAI2 variants titrated at 1:0.1, 1:0.2, 1:0.5, 1:1 and 1:2.

Some results are limits rather than exact numbers.

B1: RAI2(WT, 303-530) (domain or fragment)
chain: SRHTVIKMGSENEALDLSMKSVPWLKAGEVSPPIFQEDAALDLSVAAHRKSEPPPETLYDSGASVDSSGHTVMEKLPSGMEISFAPATSHEAPAMMDSHISSSDAATEMLSQPNHPSGEVKAENNIEMVGESQAAKVIVSVEDAVPTIFCGKIKGLSGVSTKNFSFKREDSVLQGYDINSQGEESMGNAEPLRKPIKNRSIKLKKVNSQEIHMLPIKKQRLATFFPRK
Regarding B1, in the assay with CtBP1(WT, FL) [1], the Kd – broadly, a measure of binding affinity in units of concentration – came to 1.5 µM and the stoichiometry N (commonly the number of molecules, sites or subunits per partner or assembly) came out at 0.34.

B2: RAI2(WT, 303–530) (domain or fragment)
chain: SRHTVIKMGSENEALDLSMKSVPWLKAGEVSPPIFQEDAALDLSVAAHRKSEPPPETLYDSGASVDSSGHTVMEKLPSGMEISFAPATSHEAPAMMDSHISSSDAATEMLSQPNHPSGEVKAENNIEMVGESQAAKVIVSVEDAVPTIFCGKIKGLSGVSTKNFSFKREDSVLQGYDINSQGEESMGNAEPLRKPIKNRSIKLKKVNSQEIHMLPIKKQRLATFFPRK
notes: source: E. coli BL21 DE3 LOBSTR, purified (HisTrap, TEV cleavage, Superdex 75); not shown: His6, N-terminal, cleaved
Consider B2, for which, in the assay with CtBP1(WT, FL) [2], the binding result is “binds”.

B3: RAI2(WT, 303-362) (domain or fragment)
chain: SRHTVIKMGSENEALDLSMKSVPWLKAGEVSPPIFQEDAALDLSVAAHRKSEPPPETLYD
notes: this construct came from the same vector (pETGB1a, TEV site) and may carry the same residues; source: E. coli BL21 DE3 LOBSTR, purified (HisTrap, TEV cleavage, Superdex 75); not shown: His6, N-terminal, cleaved
For B3, in the assay with CtBP1(WT, FL) [3], the Kd came out at 1.1 µM and the “stoichiometry N” value came to 0.42. Further, in the assay with CtBP1(K46W) [4], the Kd stood at 4.5 µM and the “stoichiometry N” value was 0.26.

B4: RAI2(WT, 303–362) (domain or fragment, human, UniProt Q9Y5P3 303-362, looked up)
chain: SRHTVIKMGSENEALDLSMKSVPWLKAGEVSPPIFQEDAALDLSVAAHRKSEPPPETLYD
notes: 15N/13C-labelled for NMR; A residue of the TEV site (ENLYFQG) may remain at the N-terminus; PDB 8ARI holds the Δ11 variant of the same limits; source: E. coli BL21 DE3 LOBSTR, purified (HisTrap, TEV cleavage, Superdex 75); not shown: His6, N-terminal, cleaved
Take B4: in the assay with CtBP1(WT, FL) [2], the “fold change in binding stoichiometry against M1 and M2” value is about 2 fold; the “fold increase in binding affinity against M1 and M2” value came out at 5 fold; the “stoichiometry N” value was 0.5. In addition, in the assay with CtBP1(K46W) [5], the “stoichiometry N” value is under 0.3.

B5: RAI2(WT, 303-362) (domain or fragment)
chain: SRHTVIKMGSENEALDLSMKSVPWLKAGEVSPPIFQEDAALDLSVAAHRKSEPPPETLYD
notes: Cloned in pETGB1a with a TEV site; also called Retinoic Acid-Induced 2; source: E. coli BL21 DE3 LOBSTR, purified (HisTrap, TEV cleavage, Superdex 75); not shown: His6, N-terminal, cleaved
B5: in the assay with CtBP1(WT, FL) [6], the Kd was 1.09 µM and the “stoichiometry N” value is 0.42.

B6: RAI2(M2, 303–362) (domain or fragment)
chain: SRHTVIKMGSENEALDLSMKSVPWLKAGEVSPPIFQEDAALDAAVAAHRKSEPPPETLYD
notes: 15N-labelled for NMR; PDB 8ARI holds the Δ11 variant of the same limits; source: E. coli BL21 DE3 LOBSTR, purified (HisTrap, TEV cleavage, Superdex 75); not shown: His6, N-terminal, cleaved
Turning to B6, the Kd with CtBP1(WT, FL) [2] is about 5 µM.

B7: RAI2(M1, 303–362) (domain or fragment)
chain: SRHTVIKMGSENEALDAAMKSVPWLKAGEVSPPIFQEDAALDLSVAAHRKSEPPPETLYD
notes: as for B6
Regarding B7, the Kd with CtBP1(WT, FL) [2] was about 5 µM.

B8: RAI2(M2, 303-362) (domain or fragment)
chain: SRHTVIKMGSENEALDLSMKSVPWLKAGEVSPPIFQEDAALDAAVAAHRKSEPPPETLYD
notes: as for B2
In the case of B8, in the assay with CtBP1(WT, FL) [3], the Kd was found to be 3.9 µM and the “stoichiometry N” value worked out at 0.84.

B9: RAI2(M1, 303-362) (domain or fragment)
chain: SRHTVIKMGSENEALDAAMKSVPWLKAGEVSPPIFQEDAALDLSVAAHRKSEPPPETLYD
notes: as for B2
As for B9, in the assay with CtBP1(WT, FL) [6], the affinity, expressed as Kd, was 5.53 µM and the “stoichiometry N” value turned out to be 0.785.

B10: RAI2(M1, 303-362) (domain or fragment)
chain: SRHTVIKMGSENEALDAAMKSVPWLKAGEVSPPIFQEDAALDLSVAAHRKSEPPPETLYD
notes: as for B2
For B10, in the assay with CtBP1(WT, FL) [3], the Kd is 5.5 µM and the “stoichiometry N” value was found to be 0.78.

B11: RAI2(M2, 303-362) (domain or fragment)
chain: SRHTVIKMGSENEALDLSMKSVPWLKAGEVSPPIFQEDAALDAAVAAHRKSEPPPETLYD
notes: as for B2
For B11, in the assay with CtBP1(WT, FL) [6], binding was put at a Kd of 3.87 µM and the “stoichiometry N” value came out at 0.836.

B12: RAI2(WT, 303-465) (domain or fragment)
chain: SRHTVIKMGSENEALDLSMKSVPWLKAGEVSPPIFQEDAALDLSVAAHRKSEPPPETLYDSGASVDSSGHTVMEKLPSGMEISFAPATSHEAPAMMDSHISSSDAATEMLSQPNHPSGEVKAENNIEMVGESQAAKVIVSVEDAVPTIFCGKIKGLSGVSTKN
notes: this construct came from the same vector and may carry the same residues; source: E. coli BL21 DE3 LOBSTR, purified (HisTrap, TEV cleavage, Superdex 75); not shown: His6, N-terminal, cleaved
As to B12, in the assay with CtBP1(WT, FL) [3], the Kd was determined as 1.5 µM and the “stoichiometry N” value worked out at 0.32.

B13: RAI2(M1, 303–465) (domain or fragment)
chain: SRHTVIKMGSENEALDAAMKSVPWLKAGEVSPPIFQEDAALDLSVAAHRKSEPPPETLYDSGASVDSSGHTVMEKLPSGMEISFAPATSHEAPAMMDSHISSSDAATEMLSQPNHPSGEVKAENNIEMVGESQAAKVIVSVEDAVPTIFCGKIKGLSGVSTKN
notes: PDB 8ATI holds the M2 variant of the same limits; source: E. coli BL21 DE3 LOBSTR, purified (HisTrap, TEV cleavage, Superdex 75); not shown: His6, N-terminal, cleaved
Take B13: the binding result in the assay with CtBP1(WT, FL) [7] is listed as “binds”.

B14: RAI2(M2, 303–465) (domain or fragment)
chain: SRHTVIKMGSENEALDLSMKSVPWLKAGEVSPPIFQEDAALDAAVAAHRKSEPPPETLYDSGASVDSSGHTVMEKLPSGMEISFAPATSHEAPAMMDSHISSSDAATEMLSQPNHPSGEVKAENNIEMVGESQAAKVIVSVEDAVPTIFCGKIKGLSGVSTKN
notes: only residues 315-321 (EALDLSM) are seen in the crystal structure; source: E. coli BL21 DE3 LOBSTR, purified (HisTrap, TEV cleavage, Superdex 75); not shown: His6, N-terminal, cleaved
With B14, the binding result in the assay with CtBP1(WT, FL) [7] is listed as “binds”.

B15: RAI2(Δ11, 303-362) (domain or fragment, UniProt Q9Y5P3 303-362, looked up)
chain: SRHTVIKMGSENEALDLSMKSVPWLKAGALDLSVAAHRKSEPPPETLYD
notes: as for B2
Turning to B15, the Kd in the assay with CtBP1(WT, FL) [3] is 0.8 µM; in the assay with CtBP1(K46W) [4], 7.2 µM. Moreover, the “stoichiometry N” value with CtBP1(WT, FL) [3] came out at 0.41; with CtBP1(K46W) [4], 0.29.
